# Source: patent publication US20220363763A1 (ABL BIO, published 2022)
# T1: human LAG3 (construct not stated) (human, UniProt P18627 23-450, limits assumed)
# T1 construct: also called human LAG3 protein; antigen
# T1 sequence (looked up): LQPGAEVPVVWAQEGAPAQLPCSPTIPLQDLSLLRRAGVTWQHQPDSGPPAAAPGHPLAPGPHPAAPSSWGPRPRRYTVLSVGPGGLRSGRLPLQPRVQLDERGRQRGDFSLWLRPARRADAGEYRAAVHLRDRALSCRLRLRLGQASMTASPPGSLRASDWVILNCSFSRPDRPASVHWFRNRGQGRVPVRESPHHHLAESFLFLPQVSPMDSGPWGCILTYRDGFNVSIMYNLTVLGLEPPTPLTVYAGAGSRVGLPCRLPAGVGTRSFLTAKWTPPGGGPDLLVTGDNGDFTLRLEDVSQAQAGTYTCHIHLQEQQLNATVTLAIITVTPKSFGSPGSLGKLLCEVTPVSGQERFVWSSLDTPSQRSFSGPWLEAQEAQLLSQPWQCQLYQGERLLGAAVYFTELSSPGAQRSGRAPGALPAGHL
# How the values were obtained:
# [1] = target: T2, human PD-L1 (construct not stated) (human, UniProt Q9NZQ7 19-239, limits assumed); experiment: SPR Biacore, affinity ranking
# T2 construct: also called B7-H1 (PD-L1); PD-L1 protein
# T2 sequence (Q9NZQ7 19-239 limits assumed): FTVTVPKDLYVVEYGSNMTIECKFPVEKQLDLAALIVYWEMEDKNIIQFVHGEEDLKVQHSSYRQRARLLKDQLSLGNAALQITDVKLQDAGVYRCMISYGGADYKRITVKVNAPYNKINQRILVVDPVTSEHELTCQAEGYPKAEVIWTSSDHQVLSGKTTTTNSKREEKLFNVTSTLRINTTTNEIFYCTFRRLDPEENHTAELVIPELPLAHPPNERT
# [2] = target: T3, human PD-L1-his taq protein (human, UniProt Q9NZQ7 19-239, limits assumed); experiment: SPR Biacore T200, antibody captured, PD-L1-his injected
# T3 construct: also called recombinant PD-L1 protein; recombinant human PD-L1; not shown: his tag
# T3 sequence (Q9NZQ7 19-239 limits assumed): as above
# Method: The binding of the humanized antibodies to recombinant PD-L1 protein (human PD-L1-his taq) was tested by BIACORE™ using a capture method. The HL1210-3 mouse mAb were captured using anti-mouse Fc antibody coated on a CM5 chip. A series dilution of human PD-L1-his taq protein was injected over captured antibody for 3 mins at a flow rate of […]. The antigen was allowed to dissociate for 900 s. All the experiments were carried out on a Biacore T200.
# [3] = target: T4, human PD-L1 expressed on mammalian cells (human, UniProt Q9NZQ7 19-290); experiment: FACS receptor blocking on PDL1-CHOK1 cells, competitor Bio-PD1 (30 µg/ml)
# T4 construct: whole, on cells; also called PDL1-CHOK1 cells; PDL1-Raji cells
# T4 sequence (Q9NZQ7 19-290): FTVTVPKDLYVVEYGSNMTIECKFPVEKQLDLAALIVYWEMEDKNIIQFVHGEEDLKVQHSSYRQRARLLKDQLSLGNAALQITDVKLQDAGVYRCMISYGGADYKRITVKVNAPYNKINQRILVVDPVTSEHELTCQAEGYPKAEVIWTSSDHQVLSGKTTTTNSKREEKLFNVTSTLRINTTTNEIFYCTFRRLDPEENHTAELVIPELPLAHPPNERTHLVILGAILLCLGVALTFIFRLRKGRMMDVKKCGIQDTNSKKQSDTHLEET
# Method: To evaluate the blocking effect of humanized antibodies on human PD-L1 expressed on mammalian cells to bind to its receptor PD-1, the FACS-based receptor blocking assay was employed. Briefly, PDL1-CHOK1 cells were firstly incubated with 3-fold serious diluted HL1210-3 mouse mAb starting at 20 μg/ml at RT for 1 hour. After wash by FACS buffer (PBS with 2% FBS), the biotin-labeled huPD-1 were added to each well and incubated at RT for 1 hour. Then, the Streptavidin-PE was added to each well for 0.5 hour post twice wash with FACS buffer. The mean florescence intensity (MFI) of PE was evaluated by FACSAriaIII.
# [4] = target: T4, human PD-L1 expressed on mammalian cells; experiment: flow cytometry (MFI) on PDL1-CHOK1 cells; EC50 table has no unit, x axis Antibodies(nM)
# Method: To evaluate the antigen binding property, the humanized antibodies were analyzed for its binding to mammalian expressed PD-L1 by FACS. Briefly, PDL1-CHOK1 cells were firstly incubated with 5-fold serious diluted humanized antibodies starting at 2 μg/ml at RT for 1 hour. After wash by FACS buffer (PBS with 2% FBS), the alexa 488-anti-human IgG antibody was added to each well and incubated at RT for 1 hour. The MFI of Alexa 488 was evaluated by FACSAriaIII.
# [5] = target: T2, human PD-L1 (construct not stated); experiment: BLI Octet Red 96, affinity ranking
# Description: To explore the binding kinetics of the humanized antibody, this example performed the affinity ranking by using Octet Red 96.
# [6] = target: T5, human PD-L1-Fc protein (human, UniProt Q9NZQ7 19-239); experiment: ELISA on coated human PD-L1-Fc; EC50 table has no unit, x axis Ab(nM)
# T5 construct: Coated on ELISA plates; also called huPD-L1; not shown: Fc part
# T5 sequence (Q9NZQ7 19-239 limits assumed): as the sequence (Q9NZQ7 19-239 limits assumed) above
# Method: To evaluate the antigen binding activity, the humanized antibodies were subjected to ELISA test. Briefly, microtiter plates were coated with human PD-L1-Fc protein at 0.1 μg/ml in PBS, 100 μl/well at 4° C. overnight, then blocked with 100 μl/well of 5% BSA. Five-fold dilutions of humanized antibodies starting from 10 μg/ml were added to each well and incubated for 1-2 hours at RT. The plates were washed with PBS/Tween and then incubate with […] antibody conjugated with Horse Radish Peroxidase (HRP) for 1 hour at RT. After washing, the plates were developed with TMB substrate and analyzed by spectrophotometer at OD 450-630 nm.
# [7] = target: T1, human LAG3 (construct not stated); experiment: BLI Octet Red 96, affinity ranking
# [8] = target: T1, human LAG3 (construct not stated); experiment: BLI Octet Red 96, full kinetics, antigen 50-3.125 nM
# Method: The binding affinity was calculated by software in Octet® RED96 System.
Binder,TOP [3],EC50 [4],Kd [5],koff [5],kon [5],EC50 [6],Kd [8],koff [8],kon [8],further results
"C6 (antibody, V domains shown) VH: EVQLVESGGGLVQPGGSLRLSCAASGFTFSSYDMSWVRQAPGKSLEWVATISDAGGYIYYRDSVKGRFTISRDNAKNSLYLQMNSLRDEDTAVYICARELYFRYALDYWGQGTTVTVSS VL: DIQMTQSPSSLSASVGDRVTITCKASQDVTPAVAWYQQKPGKAPKLLIYSTSSRYTGVPSRFSGSGSGTDFTFTISSLQPEDIATYYCQQHYTTPLTFGQGTKLEIK",–,–,–,–,–,–,–,–,–,Kd [1]: 1.63 nM; koff [1]: 0.000334 s⁻¹; kon [1]: 206000 M⁻¹ s⁻¹
"Hu1210-31 (antibody, V domains shown, Hu1210 VH.5b x Vk.2; human gamma 1 / kappa constant domains) VH: EVQLVESGGGLVQPGGSLRLSCAASGFTFSSYDMSWVRQAPGKGLEWVATISDGGGYIYYSDSVKGRFTISRDNAKNSLYLQMNSLRAEDTAVYICAREFGKRYALDYWGQGTTVTVSS VL: DIQMTQSPSSLSASVGDRVTITCKASQDVTPAVAWYQQKPGKAPKLLIYSTSSRYTGVPSRFSGSGSGTDFTLTISSLQPEDFATYYCQQHYTTPLTFGQGTKLEIKR",92.9,–,–,–,–,–,–,–,–,Kd [2]: 0.786 nM; koff [2]: 0.000117 s⁻¹; kon [2]: 149000 M⁻¹ s⁻¹
"147H-6 (antibody, V domains shown, Common light chain; human gamma 1 / kappa constant domains) VH: QVQLVQSGAEVKKPGASVKVSCKASGYTFTNYWLGWIKQAPGQGLEWIGDIYPGGDYINYNEKFKGKATLTADTSISTAYMELSRLRSDDTAVYYCARPNLPGDYWGQGTTVTVSS VL: DIVMTQSPLSLPVTPGEPASISCRSSKSLLHSNGITYLYWYLQKPGQSPQLLIYQVSNLASGVPDRFSGSGSGTDFTLKISRVEAEDVGVYYCAQNLELPWTFGGGTKVEIK",–,–,–,–,–,–,24.8 nM,0.00259 s⁻¹,105000 M⁻¹ s⁻¹,Kd [7]: 15.3 nM; koff [7]: 0.00184 s⁻¹; kon [7]: 120000 M⁻¹ s⁻¹
"147H chimeric antibody (antibody, V domains shown) VH: QVQLQQSGSELVRPGTSVKISCKASGYTFTNYWLGWIKQRPGHGLEWIGDIYPGGDYINYNEKFKGKATLSADTSSSTAYMQLSSLTSEDSAVYFCARPNLPGDYWGQGTSVTVSS VL: DIVMTQAAFSNPVTLGTSASISCRSSKSLLHSNGITYLYWYLQKPGQSPQLLIYQVSNLASGVPGRFSGSGSGTDFTLRISRVEAEDVGVYYCAQNLELPWTFGGGTKLEIK",–,–,–,–,–,–,27.1 nM,0.00217 s⁻¹,80100 M⁻¹ s⁻¹,–
"147H-14 (antibody, V domains shown, Common light chain; human gamma 1 / kappa constant domains) VH: EVQLVQSGAEVKKPGASVKVSCKASGYTFTNYWLGWIKQAPGQGLEWIGDIYPGGDYINYNEKFKGKATLTADTSISTAYMELSRLRSDDTAVYFCARPNLPGDYWGQGTTVTVSS VL: DIVMTQSPLSLPVTPGEPASISCRSSKSLLHSNGITYLYWYLQKPGQSPQLLIYQVSNLASGVPDRFSGSGSGTDFTLKISRVEAEDVGVYYCAQNLELPWTFGGGTKVEIK",–,–,–,–,–,–,20.7 nM,0.00204 s⁻¹,98700 M⁻¹ s⁻¹,Kd [7]: 23.2 nM; koff [7]: 0.0025 s⁻¹; kon [7]: 108000 M⁻¹ s⁻¹
"147H-7 (antibody, V domains shown, Common light chain; human gamma 1 / kappa constant domains) VH: QVQLVQSGAEVKKPGASVKVSCKASGYTFTNYWLGWIKQAPGQGLEWIGDIYPGGDYINYNEKFKGKATLTADTSISTAYMELSRLRSDDTAVYFCARPNLPGDYWGQGTTVTVSS VL: DIVMTQSPLSLPVTPGEPASISCRSSKSLLHSNGITYLYWYLQKPGQSPQLLIYQVSNLASGVPDRFSGSGSGTDFTLKISRVEAEDVGVYYCAQNLELPWTFGGGTKVEIK",–,–,–,–,–,–,26.5 nM,0.00312 s⁻¹,118000 M⁻¹ s⁻¹,Kd [7]: 15.7 nM; koff [7]: 0.00239 s⁻¹; kon [7]: 152000 M⁻¹ s⁻¹

# More lines, main results first:
TOP [3],EC50 [4],Kd [5],koff [5],kon [5],EC50 [6],Kd [8],koff [8],kon [8],Binder,further results
104,–,–,–,–,–,–,–,–,"Hu1210-27 (antibody, V domains shown, Hu1210 VH.5a x Vk.2; human gamma 1 / kappa constant domains) VH: EVQLVESGGGLVQPGGSLRLSCAASGFTFSSYDMSWVRQAPGKGLEWVATISDGGGYIYYSDSVKGRFTISRDNAKNSLYLQMNSLRAEDTAVYICAREFGKRYALDYWGQGTLVTVSS VL: DIQMTQSPSSLSASVGDRVTITCKASQDVTPAVAWYQQKPGKAPKLLIYSTSSRYTGVPSRFSGSGSGTDFTLTISSLQPEDFATYYCQQHYTTPLTFGQGTKLEIKR",–
–,1.73 nM,4.51 nM,0.0004 s⁻¹,88700 M⁻¹ s⁻¹,0.185 nM,–,–,–,"Hu1210-20 (antibody, V domains shown, Hu1210 VH.4 x Vk.1a; human gamma 1 / kappa constant domains) VH: EVQLVESGGGLVQPGGSLRLSCAASGFTFSSYDMSWVRQAPGKGLEWVSTISDGGGYIYYSDSVKGRFTISRDNAKNSLYLQMNSLRDEDTAVYYCAREFGKRYALDYWGQGTTVTVSS VL: DIQMTQSPSSLSASVGDRVTITCKASQDVTPAVAWYQQKPGKSPKLLIYSTSSRYTGVPSRFSGSGSGTDFTFTISSLQPEDIATYYCQQHYTTPLTFGQGTKLEIK",–
91.8,–,–,–,–,–,–,–,–,"Hu1210-36 (antibody, V domains shown, Hu1210 VH.5d (printed 'VH.Sd') x Vk.2; human gamma 1 / kappa constant domains) VH: EVQLVESGGGLVQPGGSLRLSCAASGFTFSSYDMSWVRQTPEKSLEWVATISDGGGYIYYSDSVKGRFTISRDNAKNNLYLQMNSLRAEDTAVYICAREFGKRYALDYWGQGTLVTVSS VL: DIQMTQSPSSLSASVGDRVTITCKASQDVTPAVAWYQQKPGKAPKLLIYSTSSRYTGVPSRFSGSGSGTDFTLTISSLQPEDFATYYCQQHYTTPLTFGQGTKLEIKR",Kd [2]: 0.538 nM; koff [2]: 7.85e-05 s⁻¹; kon [2]: 146000 M⁻¹ s⁻¹
–,1.29 nM,3.12 nM,0.000293 s⁻¹,93900 M⁻¹ s⁻¹,0.192 nM,–,–,–,"Hu1210-21 (antibody, V domains shown, Hu1210 VH.4a x Vk.1a; human gamma 1 / kappa constant domains) VH: EVQLVESGGGLVQPGGSLRLSCAASGFTFSSYDMSWVRQAPGKGLEWVATISDGGGYIYYSDSVKGRFTISRDNAKNSLYLQMNSLRDEDTAVYYCAREFGKRYALDYWGQGTTVTVSS VL: DIQMTQSPSSLSASVGDRVTITCKASQDVTPAVAWYQQKPGKSPKLLIYSTSSRYTGVPSRFSGSGSGTDFTFTISSLQPEDIATYYCQQHYTTPLTFGQGTKLEIK",–
–,1.8 nM,4.5 nM,0.000357 s⁻¹,79200 M⁻¹ s⁻¹,0.195 nM,–,–,–,"Hu1210-18 (antibody, V domains shown, Hu1210 VH.3 x Vk.1a; human gamma 1 / kappa constant domains) VH: EVQLLESGGGLVQPGGSLRLSCAASGFTFSSYDMSWVRQAPGKGLEWVSTISDGGGYIYYSDSVKGRFTISRDNSKNTLYLQMNSLRAEDTAVYYCAREFGKRYALDYWGQGTTVTVSS VL: DIQMTQSPSSLSASVGDRVTITCKASQDVTPAVAWYQQKPGKSPKLLIYSTSSRYTGVPSRFSGSGSGTDFTFTISSLQPEDIATYYCQQHYTTPLTFGQGTKLEIK",–
87.5,1.01 nM,2.5 nM,0.000225 s⁻¹,90300 M⁻¹ s⁻¹,0.137 nM,–,–,–,"Hu1210-19 (antibody, V domains shown, Hu1210 VH.3a x Vk.1a; human gamma 1 / kappa constant domains) VH: EVQLLESGGGLVQPGGSLRLSCAASGFTFSSYDMSWVRQAPGKSLEWVATISDGGGYIYYSDSVKGRFTISRDNSKNTLYLQMNSLRAEDTAVYICAREFGKRYALDYWGQGTTVTVSS VL: DIQMTQSPSSLSASVGDRVTITCKASQDVTPAVAWYQQKPGKSPKLLIYSTSSRYTGVPSRFSGSGSGTDFTFTISSLQPEDIATYYCQQHYTTPLTFGQGTKLEIK",–
